This is an account of results in the supplement of paper PMC5998384.

In data set [1] the test system is HeLa Kyoto. Nature of the data set: solubility change mitosis vs G1/S (difference of NP-40 vs SDS log2 ratios) (log2 ratio difference); higher = more soluble in mitosis.
The test system of data set [2] is HeLa Kyoto. Nature of the data set: solubility in G1/S (NP-40 vs SDS abundance) (log2 ratio); higher = more soluble. Particulars: cell cycle stage: G1/S.
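Throughout, for solubility change mitosis vs G1/S (difference of NP-40 vs SDS log2 ratios): synchronized HeLa Kyoto cells (double thymidine block for G1/S, nocodazole release for mitosis), protein amounts in NP-40 versus SDS lysates quantified by mass spectrometry, three biological replicates.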
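Throughout, for solubility in G1/S (NP-40 vs SDS abundance): HeLa Kyoto cells arrested at G1/S by double thymidine block, proteins quantified by TMT10plex mass spectrometry in mild NP-40 versus SDS extracts, three biological replicates.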

For “MDEPPFSEAALEQALGEPCDLDAALLTDIEDMLQLINNQDSDFPGLFDPPYAGSGAGGTDPASPDTSSPGSLSPPPATLSSSLEAFLSGPQAAPSPLSPPQPAPTPLKMYPSMPAFSPGPGIKEESVPLSILQTPTPQPLPGALLPQSFPAPAPPQFSSTPVLGYPSPPGGFSTGSPPGNTQQPLPGLPLASPPGVPPVSLHTQVQSVVPQQLLTVTAAPTAAPVTTTVTSQIQQVPVLLQPHFIKADSLLLTAMKTDGATVKAAGLSPLVSGTTVQTGPLPTLVSGGTILATVPLVVDAEKLPINRLAAGSKAPASAQSRGEKRTAHNAIEKRYRSSINDKIIELKDLVVGTEAKLNKSAVLRKAIDYIRFLQHSNQKLKQENLSLRTAVHKSKSLKDLVSACGSGGNTDVLMEGVKTEVEDTLTPPPSDAGSPFQSSPLSLGSRGSGSGGSGSDSEPDSPVFEDSKAKPEQRPSLHSRGMLDRSRLALCTLVFLCLSCNPLASLLGARGLPSPSDTTSVYHSPGRNVLGTESRDGPGWAQWLLPPVVWLLNGLLVLVSLVLLFVYGEPVTRPHSGPAVYFWRHRKQADLDLARGDFAQAAQQLWLALRALGRPLPTSHLDLACSLLWNLIRHLLQRLWVGRWLAGRAGGLQQDCALRVDASASARDAALVYHKLHQLHTMGKHTGGHLTATNLALSALNLAECAGDAVSVATLAEIYVAAALRVKTSLPRALHFLTRFFLSSARQACLAQSGSVPPAMQWLCHPVGHRFFVDGDWSVLSTPWESLYSLAGNPVDPLAQVTQLFREHLLERALNCVTQPNPSPGSADGDKEFSDALGYLQLLNSCSDAAGAPAYSFSISSSMATTTGVDPVAKWWASLTAVVIHWLRRDEEAAERLCPLVEHLPRVLQESERPLPRAALHSFKAARALLGCAKAESGPASLTICEKASGYLQDSLATTPASSSIDKAVQLFLCDLLLVVRTSLWRQQQPPAPAPAAQGTSSRPQASALELRGFQRDLSSLRRLAQSFRPAMRRVFLHEATARLMAGASPTRTHQLLDRSLRRRAGPGGKGGAVAELEPRPTRREHAEALLLASCYLPPGFLSAPGQRVGMLAEAARTLEKLGDRRLLHDCQQMLMRLGGGTTVTSS [SREBF1]”, in the data set on HeLa Kyoto [1], the “solubility change mitosis (log2)” value was -0.263. The “solubility in G1/S (log2)” value with HeLa Kyoto [2] was -0.139.

For the sequence “MDHTDNELQGTNSSGSLGGLDVRRRIPIKLISKQANKAKPAPRTQRTINRMPAKAPPGDEEGFDYNEEERYDCKGGELFANQRRFPGHLFWDFQINILGEKDDTPVHFCDKCGLPIKIYGRMIPCKHVFCYDCAILHEKKGDKMCPGCSDPVQRIEQCTRGSLFMCSIVQGCKRTYLSQRDLQAHINHRHMRAGKPVTRASLENVHPPIAPPPTEIPERFIMPPDKHHMSHIPPKQHIMMPPPPLQHVPHEHYNQPHEDIRAPPAELSMAPPPPRSVSQETFRISTRKHSNLITVPIQDDSNSGAREPPPPAPAPAHHHPEYQGQPVVSHPHHIMPPQQHYAPPPPPPPPISHPMPHPPQAAGTPHLVYSQAPPPPMTSAPPPITPPPGHIIAQMPPYMNHPPPGPPPPQHGGPPVTAPPPHHYNPNSLPQFTEDQGTLSPPFTQPGGMSPGIWPAPRGPPPPPRLQGPPSQTPLPGPHHPDQTRYRPYYQ [CBLL1]”, in the data set on HeLa Kyoto [1], the “solubility change mitosis (log2)” value was -0.286. In addition, the “solubility in G1/S (log2)” value in the data set on HeLa Kyoto [2] was found to be 0.175.

With “MDIAIHHPWIRRPFFPFHSPSRLFDQFFGEHLLESDLFPTSTSLSPFYLRPPSFLRAPSWFDTGLSEMRLEKDRFSVNLDVKHFSPEELKVKVLGDVIEVHGKHEERQDEHGFISREFHRKYRIPADVDPLTITSSLSSDGVLTVNGPRKQVSGPERTIPITREEKPAVTAAPKK [CRYAB]”, the “solubility change mitosis (log2)” value in the data set on HeLa Kyoto [1] is 0.00397. In the data set on HeLa Kyoto [2], the “solubility in G1/S (log2)” value was -0.171.

For the sequence “MDLVGVASPEPGTAAAWGPSKCPWAIPQNTISCSLADVMSEQLAKELQLEEEAAVFPEVAVAEGPFITGENIDTSSDLMLAQMLQMEYDREYDAQLRREEKKFNGDSKVSISFENYRKVHPYEDSDSSEDEVDWQDTRDDPYRPAKPVPTPKKGFIGKGKDITTKHDEVVCGRKNTARMENFAPEFQVGDGIGMDLKLSNHVFNALKQHAYSEERRSARLHEKKEHSTAEKAVDPKTRLLMYKMVNSGMLETITGCISTGKESVVFHAYGGSMEDEKEDSKVIPTECAIKVFKTTLNEFKNRDKYIKDDFRFKDRFSKLNPRKIIRMWAEKEMHNLARMQRAGIPCPTVVLLKKHILVMSFIGHDQVPAPKLKEVKLNSEEMKEAYYQTLHLMRQLYHECTLVHADLSEYNMLWHAGKVWLIDVSQSVEPTHPHGLEFLFRDCRNVSQFFQKGGVKEALSERELFNAVSGLNITADNEADFLAEIEALEKMNEDHVQKNGRKAASFLKDDGDPPLLYDE [RIOK3]”, in the data set with HeLa Kyoto [1], the “solubility change mitosis (log2)” value was -0.00535. Also, the “solubility in G1/S (log2)” value in the data set on HeLa Kyoto [2] came to 0.0978.

In the case of “MDNAVDGLDKASIANSDGPTAGSQTPPFKRKGKLSTIGKIFKPWKWRKKKTSDKFRETSAVLERKISTRQSREELIRRGVLKELPDQDGDVTVNFENSNGHMIPIGEESTREENVVKSEEGNGSVSEKTPPLEEQAEDKKENTENHSETPAAPALPPSAPPKPRPKPKPKKSPVPPKGATAGASHKGDEVPPIKKNTKAPGKQAPVPPPKPASRNTTREAAGSSHSKKTTGSKASASPSTSSTSSRPKASKETVSSKAGTVGTTKGKRKTDKQPITSHLSSDTTTSGTSDLKGEPAETRVESFKLEQTVPGAEEQNTGKFKSMVPPPPVAPAPSPLAPPLPLEDQCITASDTPVVLVSVGADLPVSALDPSQLLWAEEPTNRTTLYSGTGLSVNRENAKCFTTKEELGKTVPQLLTPGLMGESSESFSASEDEGHREYQANDSDSDGPILYTDDEDEDEDEDGSGESALASKIRRRDTLAIKLGNRPSKKELEDKNILQRTSEEERQEIRQQIGTKLVRRLSQRPTTEELEQRNILKQKNEEEEQEAKMELKRRLSRKLSLRPTVAELQARRILRFNEYVEVTDSPDYDRRADKPWARLTPADKAAIRKELNEFKSTEMEVHEESRQFTRFHRP [PHACTR2]”, the “solubility change mitosis (log2)” value with HeLa Kyoto [1] is -0.286. The “solubility in G1/S (log2)” value in the data set with HeLa Kyoto [2] came to 0.45.

For the sequence “MDPDPQAGVQVGMRVVRGVDWKWGQQDGGEGGVGTVVELGRHGSPSTPDRTVVVQWDQGTRTNYRAGYQGAHDLLLYDNAQIGVRHPNIICDCCKKHGLRGMRWKCRVCLDYDLCTQCYMHNKHELAHAFDRYETAHSRPVTLSPRQGLPRIPLRGIFQGAKVVRGPDWEWGSQDGGEGKPGRVVDIRGWDVETGRSVASVTWADGTTNVYRVGHKGKVDLKCVGEAAGGFYYKDHLPRLGKPAELQRRVSADSQPFQHGDKVKCLLDTDVLREMQEGHGGWNPRMAEFIGQTGTVHRITDRGDVRVQFNHETRWTFHPGALTKHHSFWVGDVVRVIGDLDTVKRLQAGHGEWTDDMAPALGRVGKVVKVFGDGNLRVAVAGQRWTFSPSCLVAYRPEEDANLDVAERARENKSSLSVALDKLRAQKSDPEHPGRLVVEVALGNAARALDLLRRRPEQVDTKNQGRTALQVAAYLGQVELIRLLLQARAGVDLPDDEGNTALHYAALGNQPEATRVLLSAGCRADAINSTQSTALHVAVQRGFLEVVRALCERGCDVNLPDAHSDTPLHSAISAGTGASGIVEVLTEVPNIDVTATNSQGFTLLHHASLKGHALAVRKILARARQLVDAKKEDGFTALHLAALNNHREVAQILIREGRCDVNVRNRKLQSPLHLAVQQAHVGLVPLLVDAGCSVNAEDEEGDTALHVALQRHQLLPLVADGAGGDPGPLQLLSRLQASGLPGSAELTVGAAVACFLALEGADVSYTNHRGRSPLDLAAEGRVLKALQGCAQRFRERQAGGGAAPGPRQTLGTPNTVTNLHVGAAPGPEAAECLVCSELALLVLFSPCQHRTVCEECARRMKKCIRCQVVVSKKLRPDGSEVASAAPAPGPPRQLVEELQSRYRQMEERITCPICIDSHIRLVFQCGHGACAPCGSALSACPICRQPIRDRIQIFV [MIB2]”, the “solubility change mitosis (log2)” value in the data set on HeLa Kyoto [1] is -0.0211. In addition, in the data set on HeLa Kyoto [2], the “solubility in G1/S (log2)” value was -0.12.

Regarding “MDPIRSFCGKLRSLASTLDCETARLQRALDGEESDFEDYPMRILYDLHSEVQTLKDDVNILLDKARLENQEGIDFIKATKVLMEKNSMDIMKIREYFQKYGYSPRVKKNSVHEQEAINSDPELSNCENFQKTDVKDDLSDPPVASSCISEKSPRSPQLSDFGLERYIVSQVLPNPPQAVNNYKEEPVIVTPPTKQSLVKVLKTPKCALKMDDFECVTPKLEHFGISEYTMCLNEDYTMGLKNARNNKSEEAIDTESRLNDNVFATPSPIIQQLEKSDAEYTNSPLVPTFCTPGLKIPSTKNSIALVSTNYPLSKTNSSSNDLEVEDRTSLVLNSDTCFENLTDPSSPTISSYENLLRTPTPPEVTKIPEDILQLLSKYNSNLATPIAIKAVPPSKRFLKHGQNIRDVSNKEN [SKA3]”, in the data set with HeLa Kyoto [1], the “solubility change mitosis (log2)” value was 0.0344. Also, in the data set with HeLa Kyoto [2], the “solubility in G1/S (log2)” value is 0.436.

In the case of “MDPLRAQQLAAELEVEMMADMYNRMTSACHRKCVPPHYKEAELSKGESVCLDRCVSKYLDIHERMGKKLTELSMQDEELMKRVQQSSGPA [TIMM10]”, the “solubility change mitosis (log2)” value with HeLa Kyoto [1] turned out to be 0.197. For the same sequence, in the data set with HeLa Kyoto [2], the “solubility in G1/S (log2)” value is -0.415.

Take “MDPRGILKAFPKRQKIHADASSKVLAKIPRREEGEEAEEWLSSLRAHVVRTGIGRARAELFEKQIVQHGGQLCPAQGPGVTHIVVDEGMDYERALRLLRLPQLPPGAQLVKSAWLSLCLQERRLVDVAGFSIFIPSRYLDHPQPSKAEQDASIPPGTHEALLQTALSPPPPPTRPVSPPQKAKEAPNTQAQPISDDEASDGEETQVSAADLEALISGHYPTSLEGDCEPSPAPAVLDKWVCAQPSSQKATNHNLHITEKLEVLAKAYSVQGDKWRALGYAKAINALKSFHKPVTSYQEACSIPGIGKRMAEKIIEILESGHLRKLDHISESVPVLELFSNIWGAGTKTAQMWYQQGFRSLEDIRSQASLTTQQAIGLKHYSDFLERMPREEATEIEQTVQKAAQAFNSGLLCVACGSYRRGKATCGDVDVLITHPDGRSHRGIFSRLLDSLRQEGFLTDDLVSQEENGQQQKYLGVCRLPGPGRRHRRLDIIVVPYSEFACALLYFTGSAHFNRSMRALAKTKGMSLSEHALSTAVVRNTHGCKVGPGRVLPTPTEKDVFRLLGLPYREPAERDW [POLL]”: the “solubility change mitosis (log2)” value in the data set on HeLa Kyoto [1] is -0.00139. The “solubility in G1/S (log2)” value in the data set with HeLa Kyoto [2] was 0.0728.

For the sequence “MDPSADTWDLFSPLISLWINRFYIYLGFAVSISLWICVQIVIKTQGKNLQEKSVPKAAQDLMTNGYVSLQEKDIFVSGVKIFYGSQTGTAKGFATVLAEAVTSLDLPVAIINLKEYDPDDHLIEEVTSKNVCVFLVATYTDGLPTESAEWFCKWLEEASIDFRFGKTYLKGMRYAVFGLGNSAYASHFNKVGKNVDKWLWMLGAHRVMSRGEGDCDVVKSKHGSIEADFRAWKTKFISQLQALQKGERKKSCGGHCKKGKCESHQHGSEEREEGSHEQDELHHRDTEEEEPFESSSEEEFGGEDHQSLNSIVDVEDLGKIMDHVKKEKREKEQQEEKSGLFRNMGRNEDGERRAMITPALREALTKQGYQLIGSHSGVKLCRWTKSMLRGRGGCYKHTFYGIESHRCMETTPSLACANKCVFCWRHHTNPVGTEWRWKMDQPEMILKEAIENHQNMIKQFKGVPGVKAERFEEGMTVKHCALSLVGEPIMYPEINRFLKLLHQCKISSFLVTNAQFPAEIRNLEPVTQLYVSVDASTKDSLKKIDRPLFKDFWQRFLDSLKALAVKQQRTVYRLTLVKAWNVDELQAYAQLVSLGNPDFIEVKGVTYCGESSASSLTMAHVPWHEEVVQFVHELVDLIPEYEIACEHEHSNCLLIAHRKFKIGGEWWTWIDYNRFQELIQEYEDSGGSKTFSAKDYMARTPHWALFGASERGFDPKDTRHQRKNKSKAISGC [TYW1]”, the “solubility change mitosis (log2)” value with HeLa Kyoto [1] was -0.205. In the data set with HeLa Kyoto [2], the “solubility in G1/S (log2)” value was -0.157.

For “MDPVVLSYMDSLLRQSDVSLLDPPSWLNDHIIGFAFEYFANSQFHDCSDHVSFISPEVTQFIKCTSNPAEIAMFLEPLDLPNKRVVFLAINDNSNQAAGGTHWSLLVYLQDKNSFFHYDSHSRSNSVHAKQVAEKLEAFLGRKGDKLAFVEEKAPAQQNSYDCGMYVICNTEALCQNFFRQQTESLLQLLTPAYITKKRGEWKDLITTLAKK [SENP8]”, the “solubility change mitosis (log2)” value in the data set with HeLa Kyoto [1] is -0.151. Besides, the “solubility in G1/S (log2)” value in the data set with HeLa Kyoto [2] stood at 0.62.
